Measured values taken from patent US20060040324A1.
Where no end group is shown, it is not given here. [ ]: non-standard residue; d: D form.

Experiments:
[1] = target: GP IIb/IIIa platelet receptor (integrin heterodimeric glycoprotein IIb/IIIa) (human) (UniProt P08514); test: radioligand saturation binding to fresh human blood clots
[2] = target: GP IIb/IIIa platelet receptor (integrin heterodimeric glycoprotein IIb/IIIa) (human) (UniProt P08514); test: radioligand saturation binding, ADP-activated human platelets in platelet rich plasma, filtration
[3] = target: GP IIb/IIIa platelet receptor (integrin heterodimeric glycoprotein IIb/IIIa) (human) (UniProt P08514); test: radioligand saturation binding, ADP-activated formalin-fixed human platelets, filtration
[4] = target: GP IIb/IIIa platelet receptor (integrin heterodimeric glycoprotein IIb/IIIa) (human) (UniProt P08514); test: radioligand saturation binding to human blood clots, carrier-free preparation
tuftsin receptor (human) [5] = test: radioligand saturation binding, fresh and formalin-fixed human PMN leukocytes, filtration
tuftsin receptor (human) [6] = test: radioligand saturation binding, fresh and formalin-fixed HL-60 cells, filtration
tuftsin receptor (human) [7] = test: competition with 99mTc-labeled peptide on HL-60 cells
tuftsin receptor (human) [8] = test: competition with trace 99mTc-labeled peptide on formalin-fixed human PMN leukocytes
[9] = target: GP IIb/IIIa platelet receptor (integrin heterodimeric glycoprotein IIb/IIIa) (human) (UniProt P08514); test: competition with trace 99mTc-labeled peptide on activated formalin-fixed human platelets
tuftsin receptor (human) [10] = test: cell-based or functional assay
tuftsin receptor (human) [11] = test: competition with 99mTc-labeled peptide on HL-60 cells; remark: listed apart in the source
tuftsin receptor (human) [12] = test: binding to human leukocytes

Sequence of UniProt P08514 (P08514 32-1039, chain 1 of 2): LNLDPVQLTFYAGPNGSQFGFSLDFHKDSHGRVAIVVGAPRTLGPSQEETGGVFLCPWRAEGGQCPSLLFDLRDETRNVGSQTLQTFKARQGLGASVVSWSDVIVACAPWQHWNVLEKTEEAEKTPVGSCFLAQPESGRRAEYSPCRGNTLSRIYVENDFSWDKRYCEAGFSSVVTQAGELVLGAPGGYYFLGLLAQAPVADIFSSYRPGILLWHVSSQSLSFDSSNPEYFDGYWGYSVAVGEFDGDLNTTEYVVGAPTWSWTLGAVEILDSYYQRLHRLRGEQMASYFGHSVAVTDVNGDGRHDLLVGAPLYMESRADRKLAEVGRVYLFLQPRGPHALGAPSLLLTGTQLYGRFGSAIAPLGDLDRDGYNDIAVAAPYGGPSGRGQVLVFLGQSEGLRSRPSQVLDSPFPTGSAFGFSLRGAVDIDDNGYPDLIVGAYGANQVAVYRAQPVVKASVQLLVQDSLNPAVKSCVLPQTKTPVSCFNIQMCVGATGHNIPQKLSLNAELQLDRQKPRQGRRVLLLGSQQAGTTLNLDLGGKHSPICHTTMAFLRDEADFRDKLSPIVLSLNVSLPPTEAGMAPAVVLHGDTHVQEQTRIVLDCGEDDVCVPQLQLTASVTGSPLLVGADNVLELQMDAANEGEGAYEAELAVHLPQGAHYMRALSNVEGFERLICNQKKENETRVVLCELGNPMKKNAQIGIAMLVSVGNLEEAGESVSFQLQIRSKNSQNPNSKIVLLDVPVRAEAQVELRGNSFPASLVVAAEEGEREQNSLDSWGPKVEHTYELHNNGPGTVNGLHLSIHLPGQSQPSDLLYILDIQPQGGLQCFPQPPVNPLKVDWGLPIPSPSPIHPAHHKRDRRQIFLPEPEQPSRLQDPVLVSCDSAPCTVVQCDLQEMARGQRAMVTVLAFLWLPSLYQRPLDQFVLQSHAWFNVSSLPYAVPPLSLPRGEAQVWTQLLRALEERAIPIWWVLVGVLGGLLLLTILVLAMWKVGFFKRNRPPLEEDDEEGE
Sequence of UniProt P08514 (P05106 27-788, chain 2 of 2, further chain): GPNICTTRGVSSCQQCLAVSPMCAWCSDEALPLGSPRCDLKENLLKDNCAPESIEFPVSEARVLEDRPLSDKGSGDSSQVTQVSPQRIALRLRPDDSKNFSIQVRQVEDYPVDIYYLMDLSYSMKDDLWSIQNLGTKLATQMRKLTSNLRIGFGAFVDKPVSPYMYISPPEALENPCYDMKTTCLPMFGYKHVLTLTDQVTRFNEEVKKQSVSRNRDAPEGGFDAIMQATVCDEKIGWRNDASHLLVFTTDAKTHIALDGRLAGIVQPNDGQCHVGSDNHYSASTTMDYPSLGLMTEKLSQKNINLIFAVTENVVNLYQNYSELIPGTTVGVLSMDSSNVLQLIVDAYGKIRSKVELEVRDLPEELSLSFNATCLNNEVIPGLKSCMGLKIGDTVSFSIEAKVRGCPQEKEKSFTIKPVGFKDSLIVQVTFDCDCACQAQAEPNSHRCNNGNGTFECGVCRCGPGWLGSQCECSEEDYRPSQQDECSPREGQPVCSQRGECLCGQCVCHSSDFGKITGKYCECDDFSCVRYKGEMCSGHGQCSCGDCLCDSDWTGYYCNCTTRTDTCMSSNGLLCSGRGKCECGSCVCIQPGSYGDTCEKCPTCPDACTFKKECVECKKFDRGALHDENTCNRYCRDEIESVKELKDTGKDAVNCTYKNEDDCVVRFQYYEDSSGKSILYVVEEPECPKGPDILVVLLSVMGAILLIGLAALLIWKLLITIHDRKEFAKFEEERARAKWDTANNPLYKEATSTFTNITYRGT

^99mTc-[D-Arg-Gly-D-Cys]-β-Ala (peptide)
Kd [1]: 5 to 10 nM
Kd [2]: 5 to 10 nM
Kd [3]: 5 to 10 nM
Kd [4]: 5 to 10 nM

^99mTc-Thr-[D-Lys-Gly-D-Cys]-Arg (peptide)
Kd (tuftsin receptor (human) [5]): 1 to 5 nM
Kd (tuftsin receptor (human) [6]): 1 to 5 nM

^99mTc-labeled PEG8000-D-Arg-Gly-D-Cys-β-Ala (peptide)
Kd [1]: 5 to 20 nM

^99Tc-Thr-[D-Lys-Gly-D-Cys]-Arg (peptide)
IC50 (tuftsin receptor (human) [7]): 1 to 5 nM
IC50 (tuftsin receptor (human) [8]): 1 to 5 nM

^99Tc-[D-Arg-Gly-D-Cys]-β-Ala (peptide)
IC50 [9]: 5 to 10 nM

TKPR [natural tuftsin Thr-Lys-Pro-Arg]
nitroblue tetrazolium dye reduction (hexose monophosphate shunt activity) in human PMN granulocytes: concentration of maximal stimulation (tuftsin receptor (human) [10]): 100 nM
IC50 (tuftsin receptor (human) [8]): 100 nM
IC50 (tuftsin receptor (human) [11]): 100 nM

T[dK]G[dC]R (also: ReO[V] complexed to D-Lys-Gly-D-Cys) [Thr-ReO[V]-[D-Lys-Gly-D-Cys]-Arg]
nitroblue tetrazolium dye reduction (hexose monophosphate shunt activity) in human PMN granulocytes: concentration of maximum stimulation (tuftsin receptor (human) [10]): 1 to 5 nM
stimulation of phagocytosis of heat inactivated yeast cells by human PMN granulocytes: concentration of maximal stimulation (tuftsin receptor (human) [10]): 1 nM

T[dK]G[dC]R [Thr-D-Lys-Gly-D-Cys-Arg (unlabeled, not complexed to a metal ion)]
Kd (tuftsin receptor (human) [12]): 100000 nM
IC50 (tuftsin receptor (human) [8]): 2000 to 5000 nM
